These results are taken from paper PMC6140506 (Proceedings of the National Academy of Sciences of the …, 2018).

Test in all cases: SPR
Background: In SPR one partner is held on a chip, and binding of the other changes the refractive index at the surface.

Experiment [1] deals with Bet v 4 (UniProt Q39419).
Experiment [2] addresses T1, Ole e 3 (Olea europaea (common olive), UniProt O81092).
A further experiment concerns the target Phl p 7 wild-type (Timothy grass, UniProt O82040).
Experiment [3] deals with Bet v 4 (UniProt Q39419). This is another data set of the same source.
Experiment [4] addresses T1, Ole e 3. The source holds these as a separate data set.

By Kd is commonly meant the equilibrium constant for the complex coming apart.

Like-named read-outs stand apart in the source and are kept apart here.

Chain of Bet v 4 (Q39419 whole entry): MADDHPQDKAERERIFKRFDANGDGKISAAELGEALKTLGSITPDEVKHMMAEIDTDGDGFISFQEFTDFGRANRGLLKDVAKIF
Chain of Phl p 7 wild-type (O82040 whole entry): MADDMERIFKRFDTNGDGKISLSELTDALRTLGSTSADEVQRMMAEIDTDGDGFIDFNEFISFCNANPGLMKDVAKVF

B1: 102.1F10 IgE (antibody, V domains shown)
VH: QVQLVQSGAEVRNPGASVKVSCKASGYTFTSYAIHWVRQAPGHRLEWVGRINTDNGNTKYSQKFHGRVALSRDTSASTTYMDLSSLNSEDTAVYYCARAFYYSSGVMFDSWGQGALVTVSS
VL: QSALTQPPSVSGAPGQRVSISCTGGSSNFGAGYDVHWYQQLPATAPKLLIYGNNNRPSGVPDRFSGSKSGTSASLAITGLQAEDEGDYFCQSFDTSLSGWIFGGGTKLTVL
With B1, in the experiment with Bet v 4 [1], the “fold weaker binding than Phl p 7” value came to 1000 fold. In the experiment with Ole e 3 [2], the binding result is “binds”. The same molecule had a Kd with Phl p 7 wild-type of 0.17 nM.

B2: 102.1F10 Fab (Fab, V domains shown)
VH: B1 VH
VL: B1 VL
For the molecule B2, in the experiment with Bet v 4 [3], the “fold weaker binding than Phl p 7” value came to 1000 fold. For the same molecule, in the experiment with Ole e 3 [4], the binding result is “binds”.
